Source: patent US7202050

Biological target: T1, TMR-Asp-Glu-Ser-Glu-Glu-Glu-Asp-Lys(Nε-Flsn)-COOH reporter peptide (casein kinase II substrate peptide), unphosphorylated (not fully specified)
T1 chain: DESEEEDK

B1: Human casein kinase II (CKII) (protein)
chain: MSGPVPSRARVYTDVNTHRPREYWDYESHVVEWGNQDDYQLVRKLGRGKYSEVFEAINITNNEKVVVKILKPVKKKKIKREIKILENLRGGPNIITLADIVKDPVSRTPALVFEHVNNTDFKQLYQTLTDYDIRFYMYEILKALDYCHSMGIMHRDVKPHNVMIDHEHRKLRLIDWGLAEFYHPGQEYNVRVASRYFKGPELLVDYQMYDYSLDMWSLGCMLASMIFRKEPFFHGHDNYDQLVRIAKVLGTEDLYDYIDKYNIELDPRFNDILGRHSRKRWERFVHSENQHLVSPEALDFLDKLLRYDHQSRLTAREAMEHPYFYTVVKDQARMGSSSMPGGSTPVSSANMMSGISSVPTPSPLGPLAGSPVIAAANPLGMPVPAAAGAQQ
  phosphorylation of the peptide by CKII, HPLC analysis: Phosphorylation of the peptide by CKII was confirmed by incubation of the peptide with kinase
